Results from PMC7699647, “Nucleocapsid protein of SARS-CoV-2 phase separates into RNA-rich polymerase-containing condensates”.

Biological target: nsp12;nsp7;nsp8 (SARS-CoV-2;SARS-CoV-2;SARS-CoV-2, UniProt P0DTD1;P0DTD1;P0DTD1 4393-5324;3860-3942;3943-4140, ||)
Assay: size exclusion chromatography; 20 mM Na-HEPES pH 7.4, 100 mM NaCl, 1 mM MgCl2, 1 mM TCEP; NMR: 50 mM NaP, 0.01% NaN3, 5% D2O, 5 C; phase separation: 20 mM NaPi pH 7.5
Conditions: protein: recombinant;recombinant;recombinant; tags: 6xHis-MBP removed by TEV;His tag removed by TEV;His tag removed by TEV; copies: 1;1;2; label: 5' 6-FAM on strand 2; 5' overhang 11 nt on strand 1; other end blunt

B1: RdRp RNA scaffold (minimal RNA hairpin) (dsRNA)
RNA 1: UUUUCAUGCAUCGCGUAGGCUCAUACCGUAUUGAGA
RNA 2: UCUCAAUACGGUAUGAGCCUACGCG
B1: binds.
